Source: paper PMC5365662, “A Short Double-Stapled Peptide Inhibits Respiratory Syncytial Virus Entry and Spreading” (Antimicrobial Agents and Chemotherapy, 2017)
Bridge positions count the residues as written; N and C are the ends. Square brackets hold non-standard residues; d marks the D form. Peptide text beside a SMILES is read from it. R8 = C=CCCCCCC[C@@](C)(N)C(=O)O; R5 = C=CCCC[C@@](C)(N)C(=O)O; S5 = C=CCCC[C@](C)(N)C(=O)O

How the values were obtained:
circular dichroism = conditions: 10 mM phosphate; pH 7.5; 25 °C; 50 uM
[1] = system: rHRSV-mCherry in HEp-2 cells; assay: rHRSV-mCherry inhibition assay; format: cell-based, human respiratory syncytial virus; conditions: Table 3 (Ala scan); HEp-2 cells, rHRSV-mCherry MOI 0.2, 2-fold serial dilutions (11 dilutions), duplicate; ± SD of fit
Protocol: To measure the inhibitory activity of the peptide, the mCherry red fluorescence was quantified 48 h postinfection (p.i.).
Viral replication was quantified by measuring the mCherry fluorescence at 48 h p.i. and normalized based on the fluorescence of infected and untreated cells. (B) Cytotoxicity assay. HEp-2 cells were incubated in the presence of serial dilutions of peptides, and cell survival was quantified using the CellTiter-Glo Luminescent cell viability assay 24 h after the addition of the peptides. The signal was normalized based on the luminescence obtained for untreated cells. Error bars are standard deviations from duplicates.
HEp-2 cells were seeded at 5 × 10^4 cells per well in a 96-well plate the day before the infection. Peptides were 2-fold serially diluted in dimethyl sulfoxide (DMSO) (11 dilutions) and then further diluted in EMEM without phenol red and preincubated for 15 to 20 min with rHRSV-mCherry ([24]) at a final dilution with an MOI of 0.2 ([24]). The cells were incubated with the virus-peptide mixtures for a period of 1.5 to 2 h. The medium was then replaced by EMEM without phenol red containing 2% fetal bovine serum and the same concentration of peptide as the one that was used during the infection step. Plates were incubated 48 h at 37°C, and the mCherry fluorescence was measured using a spectrofluorometer (Tecan infinite M200PRO) with excitation and emission wavelengths of 580 and 620 nm, respectively. Relative fluorescence was normalized by the fluorescence of nontreated infected cells. Noninfected HEp-2 cells were used as standards for fluorescence background levels. Each experiment was performed in duplicate and repeated at least twice. The resulting inhibition curves were fitted in Igor Pro as described above.

Row | SMILES | helicity (circular dichroism) [%] | EC50 [1] [µM]
1 | CC[C@H](C)[C@H](NC(=O)[C@H](Cc1ccccc1)NC(=O)[C@]1(C)CCCC=CCCC[C@](C)(NC(=O)[C@@H](NC(=O)[C@H](CCCCN)NC(=O)[C@H](CCC(=O)O)NC(C)=O)[C@@H](C)CC)C(=O)N[C@@H](CCC(N)=O)C(=O)N[C@@H](CO)C(=O)N[C@@H](CC(C)C)C(=O)N1)C(=O)N[C@@H](CCCNC(=N)N)C(=O)N[C@]1(C)CCCCCCC=CCCC[C@@](C)(C(=O)N[C@H](C(N)=O)C(C)C)NC(=O)[C@H](Cc2c[nH]cn2)NC(=O)[C@H](CC(C)C)NC(=O)[C@H](CC(C)C)NC(=O)[C@H](CCC(=O)O)NC(=O)[C@H](CC(=O)O)NC(=O)[C@H](CO)NC1=O [Peptide 4bf] (Ac-EKI[S5]QSL[S5]FIR[R8]SDELLH[S5]V-NH2; staple 4-8, 12-19) | 88.9 | 
2 | CC[C@H](C)[C@H](NC(=O)[C@H](CCCCN)NC(=O)[C@H](CCC(=O)O)NC(C)=O)C(=O)N[C@@]1(C)CCCC=CCCC[C@@](C)(C(=O)N[C@@H](Cc2ccccc2)C(=O)N[C@H](C(=O)N[C@@]2(C)CCCC=CCCC[C@@](C)(C(=O)N[C@@H](CC(C)C)C(=O)N[C@@H](CC(C)C)C(=O)N[C@@H](Cc3c[nH]cn3)C(=O)N[C@@H](CC(N)=O)C(=O)N[C@H](C(N)=O)C(C)C)NC(=O)[C@H](C)NC(=O)[C@H](CO)NC(=O)[C@H](CCCCN)NC2=O)[C@@H](C)CC)NC(=O)[C@H](CC(C)C)NC(=O)[C@H](CO)NC(=O)[C@H](CCC(N)=O)NC1=O [Peptide D510A] (Ac-EKI[S5]QSL[S5]FI[S5]KSA[S5]LLHNV-NH2; staple 4-8, 11-15) | 44 | 1.1 ± 0.08
3 | CC[C@H](C)[C@H](NC(=O)[C@H](CCCCN)NC(=O)[C@H](C)NC(C)=O)C(=O)N[C@@]1(C)CCCC=CCCC[C@@](C)(C(=O)N[C@@H](Cc2ccccc2)C(=O)N[C@H](C(=O)N[C@@]2(C)CCCC=CCCC[C@@](C)(C(=O)N[C@@H](CC(C)C)C(=O)N[C@@H](CC(C)C)C(=O)N[C@@H](Cc3c[nH]cn3)C(=O)N[C@@H](CC(N)=O)C(=O)N[C@H](C(N)=O)C(C)C)NC(=O)[C@H](CC(=O)O)NC(=O)[C@H](CO)NC(=O)[C@H](CCCCN)NC2=O)[C@@H](C)CC)NC(=O)[C@H](CC(C)C)NC(=O)[C@H](CO)NC(=O)[C@H](CCC(N)=O)NC1=O [Peptide E497A] (Ac-AKI[S5]QSL[S5]FI[S5]KSD[S5]LLHNV-NH2; staple 4-8, 11-15) | 38 | 1.16 ± 0.08
4 | CC[C@H](C)[C@@H]1NC(=O)[C@H](Cc2ccccc2)NC(=O)[C@@](C)(NC(=O)[C@H](CC(C)C)NC(=O)[C@H](CO)NC(=O)[C@]2(C)CCCC=CCCC[C@@](C)(NC(=O)[C@H](CCC(=O)O)NC(C)=O)C(=O)N[C@@H]([C@@H](C)CC)C(=O)N[C@@H](CC(N)=O)C(=O)N2)CCCC=CCCC[C@@](C)(C(=O)N[C@@H](CO)C(=O)N[C@@H](CC(=O)O)C(=O)N[C@@H](C)C(=O)N[C@@H](CC(C)C)C(=O)N[C@@H](CC(C)C)C(=O)N[C@@H](Cc2c[nH]cn2)C(=O)N[C@@H](CC(N)=O)C(=O)N[C@H](C(N)=O)C(C)C)NC(=O)[C@H](CCCNC(=N)N)NC1=O [Peptide E511A] (Ac-E[R5]IN[S5]SL[S5]FIR[S5]SDALLHNV-NH2; staple 2-5, 8-12) | 73 | 1 ± 0.03
5 | CC[C@H](C)[C@H](NC(=O)[C@H](C)NC(=O)[C@]1(C)CCCC=CCCC[C@](C)(NC(=O)[C@@H](NC(=O)[C@H](CCCCN)NC(=O)[C@H](CCC(=O)O)NC(C)=O)[C@@H](C)CC)C(=O)N[C@@H](CCC(N)=O)C(=O)N[C@@H](CO)C(=O)N[C@@H](CC(C)C)C(=O)N1)C(=O)N[C@@]1(C)CCCC=CCCC[C@@](C)(C(=O)N[C@@H](CC(C)C)C(=O)N[C@@H](CC(C)C)C(=O)N[C@@H](Cc2c[nH]cn2)C(=O)N[C@@H](CC(N)=O)C(=O)N[C@H](C(N)=O)C(C)C)NC(=O)[C@H](CC(=O)O)NC(=O)[C@H](CO)NC(=O)[C@H](CCCCN)NC1=O [Peptide F505A] (Ac-EKI[S5]QSL[S5]AI[S5]KSD[S5]LLHNV-NH2; staple 4-8, 11-15) | 64 | 1.39 ± 0.1
6 | CC[C@H](C)[C@H](NC(=O)[C@H](CCCCN)NC(=O)[C@H](CCC(=O)O)NC(C)=O)C(=O)N[C@@]1(C)CCCC=CCCC[C@@](C)(C(=O)N[C@@H](Cc2ccccc2)C(=O)N[C@H](C(=O)N[C@@]2(C)CCCC=CCCC[C@@](C)(C(=O)N[C@@H](CC(C)C)C(=O)N[C@@H](CC(C)C)C(=O)N[C@@H](C)C(=O)N[C@@H](CC(N)=O)C(=O)N[C@H](C(N)=O)C(C)C)NC(=O)[C@H](CC(=O)O)NC(=O)[C@H](CO)NC(=O)[C@H](CCCCN)NC2=O)[C@@H](C)CC)NC(=O)[C@H](CC(C)C)NC(=O)[C@H](CO)NC(=O)[C@H](CCC(N)=O)NC1=O [Peptide H514A] (Ac-EKI[S5]QSL[S5]FI[S5]KSD[S5]LLANV-NH2; staple 4-8, 11-15) | 55 | 0.52 ± 0.07
7 | CC[C@H](C)[C@H](NC(=O)[C@H](Cc1ccccc1)NC(=O)[C@]1(C)CCCC=CCCC[C@](C)(NC(=O)[C@H](C)NC(=O)[C@H](CCCCN)NC(=O)[C@H](CCC(=O)O)NC(C)=O)C(=O)N[C@@H](CCC(N)=O)C(=O)N[C@@H](CO)C(=O)N[C@@H](CC(C)C)C(=O)N1)C(=O)N[C@@]1(C)CCCC=CCCC[C@@](C)(C(=O)N[C@@H](CC(C)C)C(=O)N[C@@H](CC(C)C)C(=O)N[C@@H](Cc2c[nH]cn2)C(=O)N[C@@H](CC(N)=O)C(=O)N[C@H](C(N)=O)C(C)C)NC(=O)[C@H](CC(=O)O)NC(=O)[C@H](CO)NC(=O)[C@H](CCCCN)NC1=O [Peptide I499A] (Ac-EKA[S5]QSL[S5]FI[S5]KSD[S5]LLHNV-NH2; staple 4-8, 11-15) | 24 | 1.3 ± 0.89
8 | CC[C@H](C)[C@H](NC(=O)[C@H](C)NC(=O)[C@H](CCC(=O)O)NC(C)=O)C(=O)N[C@@]1(C)CCCC=CCCC[C@@](C)(C(=O)N[C@@H](Cc2ccccc2)C(=O)N[C@H](C(=O)N[C@@]2(C)CCCC=CCCC[C@@](C)(C(=O)N[C@@H](CC(C)C)C(=O)N[C@@H](CC(C)C)C(=O)N[C@@H](Cc3c[nH]cn3)C(=O)N[C@@H](CC(N)=O)C(=O)N[C@H](C(N)=O)C(C)C)NC(=O)[C@H](CC(=O)O)NC(=O)[C@H](CO)NC(=O)[C@H](CCCCN)NC2=O)[C@@H](C)CC)NC(=O)[C@H](CC(C)C)NC(=O)[C@H](CO)NC(=O)[C@H](CCC(N)=O)NC1=O [Peptide K498A] (Ac-EAI[S5]QSL[S5]FI[S5]KSD[S5]LLHNV-NH2; staple 4-8, 11-15) | 42 | 0.6 ± 0.02
9 | CC[C@H](C)[C@H](NC(=O)[C@H](CCCCN)NC(=O)[C@H](CCC(=O)O)NC(C)=O)C(=O)N[C@@]1(C)CCCC=CCCC[C@@](C)(C(=O)N[C@@H](Cc2ccccc2)C(=O)N[C@H](C(=O)N[C@@]2(C)CCCC=CCCC[C@@](C)(C(=O)N[C@@H](CC(C)C)C(=O)N[C@@H](CC(C)C)C(=O)N[C@@H](Cc3c[nH]cn3)C(=O)N[C@@H](CC(N)=O)C(=O)N[C@H](C(N)=O)C(C)C)NC(=O)[C@H](CC(=O)O)NC(=O)[C@H](CO)NC(=O)[C@H](CCCCN)NC2=O)[C@@H](C)CC)NC(=O)[C@H](C)NC(=O)[C@H](CO)NC(=O)[C@H](CCC(N)=O)NC1=O [Peptide L503A] (Ac-EKI[S5]QSA[S5]FI[S5]KSD[S5]LLHNV-NH2; staple 4-8, 11-15) | 38 | 0.95 ± 0.53
10 | CC[C@H](C)[C@H](NC(=O)[C@H](CCCCN)NC(=O)[C@H](CCC(=O)O)NC(C)=O)C(=O)N[C@@]1(C)CCCC=CCCC[C@@](C)(C(=O)N[C@@H](Cc2ccccc2)C(=O)N[C@H](C(=O)N[C@@]2(C)CCCC=CCCC[C@@](C)(C(=O)N[C@@H](C)C(=O)N[C@@H](CC(C)C)C(=O)N[C@@H](Cc3c[nH]cn3)C(=O)N[C@@H](CC(N)=O)C(=O)N[C@H](C(N)=O)C(C)C)NC(=O)[C@H](CC(=O)O)NC(=O)[C@H](CO)NC(=O)[C@H](CCCCN)NC2=O)[C@@H](C)CC)NC(=O)[C@H](CC(C)C)NC(=O)[C@H](CO)NC(=O)[C@H](CCC(N)=O)NC1=O [Peptide L512A] (Ac-EKI[S5]QSL[S5]FI[S5]KSD[S5]ALHNV-NH2; staple 4-8, 11-15) | 45 | 0.88 ± 0.06
11 | CC[C@H](C)[C@H](NC(=O)[C@H](CCCCN)NC(=O)[C@H](CCC(=O)O)NC(C)=O)C(=O)N[C@@H](C)C(=O)N[C@@H](CCC(N)=O)C(=O)N[C@@H](CO)C(=O)N[C@@H](CC(C)C)C(=O)N[C@@]1(C)CCCC=CCCC[C@@](C)(C(=O)N[C@@H](CO)C(=O)N[C@@H](CC(=O)O)C(=O)N[C@@]2(C)CCCC=CCCC[C@@](C)(C(=O)N[C@H](C(N)=O)C(C)C)NC(=O)[C@H](Cc3c[nH]cn3)NC(=O)[C@H](CC(C)C)NC(=O)[C@H](CC(C)C)NC2=O)NC(=O)[C@H](CCCNC(=N)N)NC(=O)[C@H]([C@@H](C)CC)NC(=O)[C@H](Cc2ccccc2)NC1=O [Peptide N500A] (Ac-EKIAQSL[S5]FIR[S5]SD[S5]LLH[S5]V-NH2; staple 8-12, 15-19) | 60 | 20.4 ± 2.4
